In US20070207158A1 (BOARD OF REGENTS OF THE UNIVERSITY OF OKLAHOMA, published 2007):

Assays:
[1] = target: T1, urokinase receptor on MCF-7 human breast cancer cells (human, UniProt Q03405 23-305); assay: immunocytochemistry of MCF-7 cells with anti-L-methioninase antibody, 18 h treatment
T1 construct: whole, on cells; also called uPA receptor; urokinase receptors

[2] = target: T1, urokinase receptor on MCF-7 human …; assay: displacement assay on MCF-7 cells (summary of Example 1)

T1 sequence (Q03405 23-305): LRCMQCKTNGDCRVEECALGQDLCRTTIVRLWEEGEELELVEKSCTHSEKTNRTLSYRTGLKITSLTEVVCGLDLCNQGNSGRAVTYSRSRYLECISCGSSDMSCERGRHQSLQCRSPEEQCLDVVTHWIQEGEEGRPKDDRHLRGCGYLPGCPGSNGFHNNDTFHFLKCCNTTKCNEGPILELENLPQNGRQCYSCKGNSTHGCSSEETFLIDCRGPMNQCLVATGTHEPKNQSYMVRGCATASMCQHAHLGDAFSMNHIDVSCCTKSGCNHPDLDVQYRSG

B1: L-methioninase from Pseudomonas putida (enzyme)
chain: MRDSHNNTGFSTRAIHHGYDPLSHGGALVPPVYQTATYAFPTVEYGAACFAGEEAGHFYSRISNPTLALLEQRMASLEGGEAGLALASGMGAITSTLWTLLRPGDELIVGRTLYGCTFAFLHHGIGEFGVKIHHVDLNDAKALKAAINSKTRMIYFETPANPNMQLVDIAAVVEAVRGSDVLVVVDNTYCTPYLQRPLELGADLVVHSATKYLSGHGDITAGLVVGRKALVDRIRLEGLKDMTGAALSPHDAALLMRGIKTLALRMDRHCANALEVAQFLAGQPQVELIHYPGLPSFAQYELAQRQMRLPGGMIAFELKGGIEAGRGFMNALQLFARAVSLGDAESLAQHPASMTHSSYTPQERAHHGISEGLVRLSVGLEDVEDLLADIELALEACA
notes: also called free L-methioninase
binding result [1]: no binding (tested: 10^-6 M)

B2: ATF-methioninase fusion protein (other)
chain: SNELHQVPSNCDCLNGGTCVSNKYFSNIHWCNCPKKFGGQHCEIDKSKTGSGSGSRDSHNNTGFSTRAIHHGYDPLSHGGALVPPVYQTATYAFPTVEYGAACFAGEEAGHFYSRISNPTLALLEQRMASLEGGEAGLALASGMGAITSTLWTLLRPGDELIVGRTLYGCTFAFLHHGIGEFGVKIHHVDLNDAKALKAAINSKTRMIYFETPANPNMQLVDIAAVVEAVRGSDVLVVVDNTYCTPYLQRPLELGADLVVHSATKYLSGHGDITAGLVVGRKALVDRIRLEGLKDMTGAALSPHDAALLMRGIKTLALRMDRHCANALEVAQFLAGQPQVELIHYPGLPSFAQYELAQRQMRLPGGMIAFELKGGIEAGRGFMNALQLFARAVSLGDAESLAQHPASMTHSSYTPQERAHHGISEGLVRLSVGLEDVEDLLADIELALEACA
notes: also called FP
binding result [2]: binds
